The results in this text go back to the supplement of paper PMC12042874.

± gives the uncertainty stated by the source.

The series can be described thus: amyloid nucleation score (Sup35N fusion, yeast selection) (log enrichment); library NNK3; higher = more nucleation; inactive = no reads after selection. The gist of the method:
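Using DiMSum, nucleation scores were taken as the log enrichment of output over input reads, centred on the mode score of non-aggregating sequences. The input and output reads came from Illumina sequencing of plasmid inserts, with sequences under 100 input reads excluded. The yeast were psi-negative, expressed Sup35N fused to peptides of 20 random codons, were induced with 100 μM copper sulfate for 24 hours, and were grown 7 days at 30°C on medium lacking adenine and uracil.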
Turning to TYFHIRCVV, the amyloid nucleation score entry is “inactive”.

Turning to LCISKKVMNFSNASHGGQQC, the amyloid nucleation score result is “inactive”.

On to QLALPHKPHWGNWL, for which the amyloid nucleation score entry is “inactive”.

Turning to EGRSNNLCSSSSLWQVHAAL, the amyloid nucleation score result was “inactive”.

With TCWRGELMELTDMLSVALLR, the amyloid nucleation score result is “inactive”.

Consider RSVATLYGLRSCFCLVCSKL, for which the amyloid nucleation score was determined as 1.41 ± 0.12.

Turning to QVLWTGEMDSMICWA, the amyloid nucleation score entry was “inactive”.

For the substance FTLARAMPLGYSQGIMKSRG, the amyloid nucleation score entry was “inactive”.

Regarding HKQCWYILVNVRLMSRSRRV, the amyloid nucleation score came out at 0.818 ± 0.13.

As to YLLDKYEVAFIPSHLVLHSP, the amyloid nucleation score result was “inactive”.

CRSWVPMGGDLHRGWSLANK: the amyloid nucleation score entry is “inactive”.

With ESFWVML, the amyloid nucleation score entry is “inactive”.

In turn, NYFYGYQACVVHGISFTMGQ had an amyloid nucleation score of 0.956 ± 0.19.

Turning to LCLCYNLMSLLLLHLCREGQ, the amyloid nucleation score entry is “inactive”.

Take LSFRTQALFYFVMLYGIWRA: the amyloid nucleation score entry is “inactive”.

On to FCWVLCTP, for which the amyloid nucleation score result is “inactive”.

In the case of KSYWCNVGAIENT, the amyloid nucleation score result was “inactive”.

Consider DGDIVQCSSLCKVSGFLFTS, for which the amyloid nucleation score entry was “inactive”.

Consider DCSGG, for which the amyloid nucleation score entry is “inactive”.

For the substance KLDSLPEYFSATLWLDMSVF, the amyloid nucleation score entry was “inactive”.

As to IALSGRYRDSAACRDSCHVA, the amyloid nucleation score result was “inactive”.

Regarding TCACIWGVSVWCYRSQVFAQ, the amyloid nucleation score is -0.455 ± 0.52.

LLYYSSINYFLLLGFCSEEL yielded an amyloid nucleation score of 1.51 ± 0.065.

For the substance TTQILYTFY, the amyloid nucleation score amounted to 1.56 ± 0.12.

In the case of SILMTVYDGYHKRSKNIAQC, the amyloid nucleation score entry is “inactive”.

Take ACFLIYYLR: the amyloid nucleation score result is “inactive”.

With TRSCNLNTFKVDASGPPWHG, the amyloid nucleation score result is “inactive”.

As for YVLLVWDCRLFSVRISFRSV, the amyloid nucleation score entry is “inactive”.

For VSSILQRIISYFRTARFNYL, the amyloid nucleation score result is “inactive”.

With DPGHGS, the amyloid nucleation score entry is “inactive”.

Turning to GRHNKCMVDLVEDFQLASIW, the amyloid nucleation score result was “inactive”.

On to PRWLPVDGYEDSGVVEDKES, for which the amyloid nucleation score result is “inactive”.

With PYSISRLTSYDPFGHVPGTR, the amyloid nucleation score result was “inactive”.

Take MFEIIGHRRMLFIFYNMCYR: the amyloid nucleation score result is “inactive”.

On to LKTSNRR, for which the amyloid nucleation score entry is “inactive”.

In turn, SICGKSSCMCVTNVSPLDSQ displayed an amyloid nucleation score of 0.304 ± 0.21.

LRTAEDFETS: the amyloid nucleation score is -0.416 ± 1.5.

As for ESAKFYLYSAR, the amyloid nucleation score entry was “inactive”.

With FWTKFC, the amyloid nucleation score entry was “inactive”.

With SVWLASCYHLIWVELGRWDI, the amyloid nucleation score entry is “inactive”.

Turning to IEIFEFFSRSSNRSQPGAPL, the amyloid nucleation score entry was “inactive”.

On to GDEWGSFLECFITITSSIND, for which the amyloid nucleation score result was “inactive”.

With ENCAWSRIIRRFNECNTLV, the amyloid nucleation score result was “inactive”.

In the case of YPLDTVGFWEESKLFVGRGG, the amyloid nucleation score result was “inactive”.

In turn, LMIISGCSHMSHSVRSTRGL registered an amyloid nucleation score of -0.217 ± 0.58.

For the substance PTIYRMFGVGQMVMN, the amyloid nucleation score result is “inactive”.

For RNSVIWNRLYRMRWV, the amyloid nucleation score result was “inactive”.

Turning to RTDCV, the amyloid nucleation score entry is “inactive”.

In the case of MFWCDNSGIMGADKGVALSW, the amyloid nucleation score result is “inactive”.

ICNSY: the amyloid nucleation score result was “inactive”.

For the substance DFVRSNNCYWCFAAFSPCFR, the amyloid nucleation score entry is “inactive”.

Regarding CSSSRVWVHKHYGTYRHFIL, the amyloid nucleation score result was “inactive”.

For STTDRTWNGYDDILYTYLYF, the amyloid nucleation score result is “inactive”.

As for FTKLYELSDMHISYTRS, the amyloid nucleation score result was “inactive”.

For NSNDRK, the amyloid nucleation score result was “inactive”.

Regarding FICVCSNWGFIQNMITAPDW, the amyloid nucleation score came out at 2.77 ± 0.074.

On to MSMLYSGWAYELTLHYMRPA, for which the amyloid nucleation score entry is “inactive”.

Consider RSLYASLCVRIFDGLYCCMK, for which the amyloid nucleation score result is “inactive”.

In turn, YLLCGYRGATFRKHEVWGEG registered an amyloid nucleation score of -0.059 ± 0.78.

SRDMCAWWVYSGSSQSNECM: the amyloid nucleation score entry was “inactive”.

For CSIILWALPEFNLLDFLPAD, the amyloid nucleation score result is “inactive”.

Turning to KRVDYCFMIGVMTCVNHPTE, the amyloid nucleation score result was “inactive”.

For AYRYTHVCDMVLKWAVCCFY, the amyloid nucleation score result is “inactive”.

VYETELTFSARPRFCWCC: the amyloid nucleation score was 0.094 ± 0.59.

In the case of LSMVRLNFTRIC, the amyloid nucleation score entry is “inactive”.

SAESKISIVWMEVRINNIFR had an amyloid nucleation score of 1.67 ± 0.065.

As for MNNCLSVDKCFHFMLGFSP, the amyloid nucleation score result was “inactive”.

On to VFISLVLSDLRSFARVVLGG, for which the amyloid nucleation score entry is “inactive”.

On to LFLMWRTYYVNILESSCVVC, for which the amyloid nucleation score result is “inactive”.

As for PIWTHFRGPCGVEAIRETRV, the amyloid nucleation score entry is “inactive”.

QRSTKPW came in with an amyloid nucleation score of -0.586 ± 1.9.

Consider GNGSMVVYKSARVNLLSGIT, for which the amyloid nucleation score entry was “inactive”.

As to LCLVLWVSK, the amyloid nucleation score entry is “inactive”.

Take NKSLKLMYFSRDYFKDSRLN: the amyloid nucleation score result was “inactive”.

Consider GILCVEMSVTSLGLIIETYF, for which the amyloid nucleation score entry was “inactive”.

Consider YDIMVVWWFFVCSRSV, for which the amyloid nucleation score result is “inactive”.

For RKSSSVRFFEHCVVSDVWLV, the amyloid nucleation score result was “inactive”.

The substance MNWYRIFVVNFSCKRLYSVK came in with an amyloid nucleation score of 1.64 ± 0.067.

Take DFELFSSALGSLSNGHSENV: the amyloid nucleation score entry was “inactive”.

Regarding PCSYLCSRVFIIC, the amyloid nucleation score entry is “inactive”.

For the substance TQLIIAGFVPNYVVLPWSAH, the amyloid nucleation score was 1.38 ± 0.11.

On to RMSRNMWFWLRLNSNYIVFS, for which the amyloid nucleation score entry was “inactive”.

In turn, GWNTSSQRLHSAKPSHHRR yielded an amyloid nucleation score of -0.892 ± 1.9.

YKEMVHRSG: the amyloid nucleation score entry is “inactive”.

Turning to FWIWIWRIWYDGNEDNLDHF, the amyloid nucleation score entry is “inactive”.

With VFSDTRCVCRKRSSVFKIVS, the amyloid nucleation score result was “inactive”.

For KYTVEVNFLAFLRHIYCTSG, the amyloid nucleation score result is “inactive”.

As to RRRVSKANPGDVMIWSVIAK, the amyloid nucleation score entry was “inactive”.

Substance RGLWLEQRAVNNYVGR came in with an amyloid nucleation score of -0.291 ± 0.46.

In the case of LSMSAVL, the amyloid nucleation score result is “inactive”.

As to VKFMMPRVDIWFKDGVRRYT, the amyloid nucleation score result was “inactive”.

For the substance NTHNNIGGRYAKYGWLMRSK, the amyloid nucleation score result was “inactive”.

As for LCETYYHHTARGLHLASLVS, the amyloid nucleation score entry was “inactive”.

DFSTDTHWKVWW displayed an amyloid nucleation score of 0.566 ± 0.43.

For ENERM, the amyloid nucleation score entry was “inactive”.

With HNCASCSVRVHDSQSEKIAT, the amyloid nucleation score entry was “inactive”.

In turn, IVCRISTTCQWCRINVSGGS returned an amyloid nucleation score of 1.12 ± 0.1.

In the case of WNYPFNFQF, the amyloid nucleation score entry was “inactive”.

Take IGRISMAIMWIGVGVA: the amyloid nucleation score result was “inactive”.

For VMLCHFDMYF, the amyloid nucleation score worked out at 1.45 ± 0.092.

Regarding DLVRAMRCHSVGDVGYASSS, the amyloid nucleation score entry was “inactive”.

QKMFVQDLILVLPVISRLV: the amyloid nucleation score result was “inactive”.

SKSNIRYSNTNGH: the amyloid nucleation score result was “inactive”.

FYDLFN: the amyloid nucleation score entry was “inactive”.

IRFAAMFFALLLRRDESSYE: the amyloid nucleation score result was “inactive”.

As to MYRITQGHLR, the amyloid nucleation score result was “inactive”.

As to RCGILW, the amyloid nucleation score result is “inactive”.

In the case of IRESFINGVYMVVSEFKCFT, the amyloid nucleation score result was “inactive”.

LNGSAHYRGCCLKRRTICWM: the amyloid nucleation score result was “inactive”.

For the substance KPPGLNRHYTSCDMLSWALN, the amyloid nucleation score entry is “inactive”.

As for KSTRF, the amyloid nucleation score result was “inactive”.

On to GFYLVKSSMSWVANWCGKHT, for which the amyloid nucleation score entry was “inactive”.

Take IAARW: the amyloid nucleation score result was “inactive”.

AEWFAKLLASTMGLIFERRW: the amyloid nucleation score result was “inactive”.

On to APRRHVKGDSHIRWCVRDR, for which the amyloid nucleation score result is “inactive”.

IGWGVQFELFGTWRVEIPLV: the amyloid nucleation score result was “inactive”.

Turning to NRSTWCW, the amyloid nucleation score entry was “inactive”.

Turning to MDRYFQYPMQDMAQGTVRRD, the amyloid nucleation score is -0.56 ± 1.7.

SCKELLPFWARELLRFNRYC: the amyloid nucleation score result is “inactive”.

Regarding KRMWKGE, the amyloid nucleation score entry was “inactive”.

For the substance NLTQFYWSCGEVRVTAFYGA, the amyloid nucleation score was 2.08 ± 0.079.

In the case of FKTKDIVRKDEANSHWSMSG, the amyloid nucleation score entry is “inactive”.

Consider RSAFYHNVGGKNRVSWSIL, for which the amyloid nucleation score result was “inactive”.

On to VGYFV, for which the amyloid nucleation score entry was “inactive”.

Turning to AHFLLCNLA, the amyloid nucleation score entry is “inactive”.

On to GIFEFKLNSLNSNERGLRAG, for which the amyloid nucleation score result is “inactive”.

For NPPKDGYMLTWIIYDRKAGT, the amyloid nucleation score entry is “inactive”.

Regarding VDFYAQ, the amyloid nucleation score entry is “inactive”.

In the case of YLVMTSLIC, the amyloid nucleation score result was “inactive”.

Turning to AVHFGLYFLMRVITMC, the amyloid nucleation score entry was “inactive”.

With MNFGYNNSFAIYSVFYSYRC, the amyloid nucleation score worked out at 2.69 ± 0.055.
